Laboratory results as given in the NTF2 design screens of Basanta et al. (2020).

Assay: protease stability score; higher = more stable; yeast display proteolysis, trypsin and chymotrypsin;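 note: relative to predicted unfolded state with 0 unfolded-like and 1 meaning tenfold more protease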

Compared with “SEHKEEIIQLAEEIFRKIVTGDWERFWELADPHVRFDVGDKTRHGREKVIEYINRFMKELRFERFHIDDIRVIDGVVVIHTKLRFRVGDFQLHHHTRHEIMMVDGRIQFLRIEWE”, “RDIRELTLMMTKLIRKTDKTGDPRIAHELADPHYRFDFDGVEYHGREIVQHWMEKYPNVRFKVRHVDIVGDKARIEGTDNVDGQEIDTEYRVSKVDGRWHLEEIIFR” is higher in protease stability score: 0.096 for the first, 0.487 for the second.

First: DEDREIMERFIHILAEVWRTGDEHSLERLFDPNYKTLYDGRDVHGRETHIEILRTLGLERIEVRIKRFRVQGDKLHVNVELDVNGRTTEVEIRWRKIDGRWINHDMEIE
Second: NEDEREFRIFLELFILAMRTGDETTFKKLLDPDVKFRINGKEYHGWEEVWHVLEEIRIHDIKLTDMERVGDKLHLITRVEGEFDGRRHEIDTRLHVRKIDGRWLLRTVEIS
The protease stability score of the first is lower: 1.39 for the first, 2.13 for the second.

Compared with “DEDEEHARHMLEIFMHAVITGDEDTLKELVDPNVKLVVNGREFHGWEEYLKVHRHWRMRDAHIKHVEVQGEKVIVDTRLHGRVDGKLTDFRTEIIVRKINGRWHLESERVH”, “SEEENILEEMLKIFYESSRTGNEKTMQELFDPHARIEFEGVENIGMELAMRLTTHWRLQTVHIKDVRVIDGQIHMDGEERGVINGQEIRTEVDIISIKIDGRWLFHSKQIN” is lower in protease stability score: 2.13 for the first, 0.369 for the second.

First: HEWERLHHEAMEHFLRLQETGNEKTLQELADPDARLHYNGKDYHGRESMLKFWIELGVDHIHLHDFRIQGDKMEIHMDDHQGDKRLHTIIIHRKVNGQWHLQSEKIH
Second: GEDKELARKAVEEELESLLTGDEDRLKELIDPHTKVFINGREEIGMEALEDVLKKLGFKHIKVHHFDIRVQGDKVKNDLRGIFHVNGKDIDTQLIIISLKYNGQWFNHSLEWRTR
The protease stability score of the first is lower: 0.548 for the first, 0.595 for the second.

Compared with “DEEEKKFHELYKHLVKSLITGDEHELYRLADPNMRFSVGEFHYHGRENVLERLKEFIDRFRHATIRTKHMDRQGEYIHLTLKIHQGDKTHDMEIIAWKFDGRWFLHMIYIE”, “TESEKEAHDAVKRSIDSWLTGDEHDMAELLDPNVRLEIGDKTFIGREEFVKWLKDVREKFKGVRLHIRDYRVHVVGDKVRVEIDIQEDYGDKFHDVTLVFILRKIDGRWHNQSVEVRIE” is higher in protease stability score: 0.959 for the first, 1.58 for the second.

Going from “DDENKFWKEFMDIWVRSLETGNEEELAKLIDPHARLHVNGVENHGREIVLKWFHHHLKHAGVDHRTFHDMRVFDGVNFIDGTLHVNGVTREIRLKVYVVNGVVESEEVRIH” to “DEDEKYMQEFLERLWRDLYTGDEESLTRRMDPRTRVDINGVDIHGMERVTEHIKHLVDRADHIELIIHTVNNVDGRAHNDGILVIKVNGREIRIETHFVLLKVDGRWRIQSEEYR”, the protease stability score falls from 1.03 to 0.399.

Compared with “DEEEHEAKRADEVYQHVMETGDERLLNEYFDPHYRLEQGDYELVGREEASRFLIEWMKHWRTEYRLDNYHVIGNKIRLEGELHIRYGNFTRSHRIVTYVLKVDGQWRIKKTEIR”, “TEDQEEAKRLLHHLAHNWFTGNEHILTRLADPNTRMNVNGRDYHGREIMHETVREILERLGIDHFEIKDMRFIVQGEKIHIHIHIRSTVNGQEEDFRLSISVHKIDGRWVIKEINLHFI” is lower in protease stability score: 1.64 for the first, 0.511 for the second.

First: SEEDEVSERLAREYLHIWKTGDEDRLAKLLDPHTRFIYVIGDKELELIGRDKFAEFLRHLWEELGVNHFDVHDFKVYGEKVQLDTTEEYGDKNFRMHIDIVVIDGKVKFIRIKER
Second: DEREKFAEEIMEIFIRDVLTGDFDSLHKLIDPNTKIDLHIGDKIRPLHGREEFVKWVKEMRIHRWDITDMKVIGDKAHIDTTVDGEFNGRRTRFRQIINLDMVNGRLREIQITIG
The protease stability score of the first is lower: 1.33 for the first, 2.2 for the second.

Going from “DEDHELAEDAIRWMSKIMLTGNEEHLHEMFDPDARIRFEGRSSHGWEEMIHFIRHIRIYIKESRIRDVRIQGDKIDVIGEVKIVIRIGDKIHEDTRDVYILVVKVDGRWTVRSFELV” to “SEDEKVYLKLVEDWIRIWRTGDEDMAEKLADPNVKIIIGDKSTHGREEWTRVVRELRTTEFDAHSITVVDGVVELDGRSRGDINGVEMNSHFTFILYIVDGRLKSQEIEVH”, the protease stability score rises from 0.712 to 2.03.

First: DDLETMFRRLFREWIERAETGDESRLRHLADPHYRSDQGDYDLHGREFAHEFLSRLWKELRFTIHIRHMYVYDGRVEVDGEIRVRINGRETTHKIRIEIVIVDGRIESEHIEIR
Second: DEDTHLAKVVLEIFLHLMRTGDFKETWEYADPHVRIDIGDKHLHGREELARLMEELGIDHFEIRDVHLQGDKLHIRTDVDFNGVRTHVVFIILKVDGRWVLTHVRIE
The protease stability score of the first is lower: 1.26 for the first, 1.46 for the second.

Compared with “SEDEEAVHKMLEMWIKHINTGDERHLHKLADPNYRVEQGDKELHGRHAYEYVFHQFDHWKEIRIEEVKTYDGRVKIKGREVYHINGQEIESEVRIITTKVDGQWHLKSILFK”, “DEMEETTERITRLIHHYHRTGDWRLLSDLFDPHAKSEVNGVRLHGWHEMREFFENEMRELGIENVRFRYHLHDYRIFDGRVDLDVRLEIRIGDKEDHMESHIHTEKVNGQWRLRTLSLN” is lower in protease stability score: 0.525 for the first, 0.412 for the second.

Going from “HEHEEEVRSMTRLFLHAFVTGDWRTIVELIDPNVRTWFNGKDDHGRESLFKNLIRVLEEFGADHVDITIEEMEVQGNKVRVKMIIEVIVGDKDLRLSINQQAYKVDGRWRVKEIIIH” to “HEEERIVEEVAKHFLHHFVTGDWHNLARLADPHVRSDINGRELHGWETLIHVMLKDLRRLGFKHFEVHHVHIQGDKYHNDGTLDYNGVKVRSHLEFQIVDGKLHQMRVQDK”, the protease stability score rises from 0.725 to 1.07.

First: DEEDRRAKEIMRLLLEDFHTGNEDSLRELMDPTTRNDLVVNGQEHVIHGRETFAEWESKWIKHLRMNLRLRHVNAFNGQVRLETELNLEVNGRIIILDTEVIVHVYNGRIHSFTHRIK
Second: DEKERESEEFIRRFISVYETGDWKTMFELADPHTRMIDIVNGRDIEIIGREAIRHIFEERMRLLGIKHFHIDHSSRQGNKYHQKVTIRVDGQEIEAHVHVIVVDGVLKQIEVRSK
The protease stability score of the first is lower: 0.236 for the first, 1.06 for the second.

Compared with “REEEERVEHLARLVFRALMTGDEDEYKHLADPDDRLILVINGRRQEFHGMEVVLEWLRHLLKEIRIHHSHIHDVKVIGDKVDFDTSVDVEYNGQRHWRKMRVIIIIVNGRYRSVEIILE”, “TEMEKRAEHWARLMVDRLKTGDEEVLRKMMDPNTRLEIDGREFIGREEILKSWEELGIKHIIFRHIDIEIVDGVVHVHLDLHVRIGEKDTKIELRVTNEKINGRWVIRSIHIHDI” is lower in protease stability score: 2.26 for the first, 1.69 for the second.

First: HEELELRRRVLENWTKNMITGNEEETKKLADPNVRIDIDGVELHGMDIWYEYMRHIRIKIQHIERKDVKDYDGKVEVDADSHVEMEVNGKLTSTRRKLIFIHLKVDGRWVIHSISFH
Second: DEEEKFSREVMELHIELWETGDEDTLTRLADPHAKFVLEWNGRNHTNHGMDVLIHMLHRLLKELGIKHTELRRKDVIGDKNHIHRRVIVNGVPTDLDLELVIIDGKLREYRIHIRIR
The protease stability score of the first is lower: 0.823 for the first, 1.56 for the second.

Going from “DEDTKEADDFTKIWAKSVETGDEDMLKHLADPHVRVEIGDKVFIGRHFWLKVLRHIRVESVHVEDYKVQGEKVEYHVRFEVDINGQKVESTRRMIVRKVNGRWILETVILE” to “SEDKELAERLYHLLLRTLITGDEKQLIDNMDPDARVHVGDKHRHGMEWMNRYLHELRIRDQDDKDIRLQGNKVHVDGHVRGNINGQEIDYRFHIELITINGVVHMINIQIR”, the protease stability score falls from 1.49 to 0.945.

Compared with “DDIDEHAETVVDHLIRSQMTGNEELFQHLADPHARLDINGKEYVGRELVSKIITHLRIHFLEIQFLHVQGDKVTIDVKIRGKVDGRTETSDQRLILVKINGKWLLTEIEVG”, “DEREEMVERFLTEWLRSLVTGDWEDSEKLFDPNVRIHVNGREFHGRHEAIKHFHELRIHKIELKSIDIQGNKAHVDVEVDGNVNGQNRIIKVNLFFKKVNGRWYFEQVEIH” is higher in protease stability score: 1.03 for the first, 1.24 for the second.

First: DDLEEATEFYIKLYYEAVETGDERLITELADPNMRIDWNGREIHGREEFVRRLREMRVSRIEVQHVDKYGDKLHIHVRIIIEVGDKKIESSSHLISLKFNGRWLLKSMWIK
Second: DESEESMRHALEEIIESMVTGDEDRLRELADPNVRSKVNGRDIHGWKVVSKLVKELRIRDVKVEDKDREVQGEWMYFHGLFRIDGEFDGRRVDLELDLTIIAHKVNGRWVIRMFKYR
The protease stability score of the first is lower: 1.39 for the first, 1.63 for the second.

Compared with “DDTKKHMEKIFRLMIEWWETGDFDRMENNADPHVRAHIGDKEIHGREEMIKLIRELIEELGIDHEETEEVRVYDGRIHVHSRLHINGKEIEVQLHSQVVDGRIESFELHVITR”, “SEDHELRKHLADRTYKWLATGNFEELMKLMDPNTRFTIGEFNDHGRKAIEWLWRELGVDHFHFREIRVQGDKIHMDTEFEFNGVKVRTHFRVIVIDGRVTSVIILTE” is higher in protease stability score: 1.05 for the first, 1.34 for the second.

Compared with “DREENEIREFIEKLVDAHLTGNFELMDELADPNVRIEIGDKRYHGREEYLRLMHELRIHHVEIDHIEWYNGQVHMHGTVDGVVDGRRHRIHTEMTVEKVNGRWILTEERQL”, “SEEEEEAQRFFEEWSKSWVTGDEDLTLHLLDPNVKVDIGDKVYHGRESYLELLHLILREARVHSFHMHRLEVIGEKANIDSRVDHEVGDKRDTVHMNMIVVKINGRWILKSIQIK” is higher in protease stability score: 1.69 for the first, 2.58 for the second.

Compared with “DKDDHDFERVLRIFIESIRTGDEDSIRRLADPSVKHVVNGKEFHGREDWEEMIRRIDHIRDFELKSVSIYNGKIEVDGVLTGIFNGREDKTHVHIIMMKVNGRWYIKSWELK”, “GEKEELSRLALHLWFRDYHTGDEDSAHRLLDPNVRLHVGDKHFVGRERFTRFWHEVYRELRIDDYILHSEDIQGDKIHMDGRIDGVVGDKREDFRTEIHLIWIDGKLHSEKRDKE” is lower in protease stability score: 1.93 for the first, 0.902 for the second.

First: TEEEKDSDDAFRHWVHSMRTGDEDRLRELIDPNARLLVNGRELHGMEWIITILSKEIKELRFKDVRLRDRDIVGNYAEVDVEIDMTIGEKEDSRDVVIFVLKVNGRWVIKEMHIR
Second: SEEEHHFERWMRVFLHSMRTGDPSSFEELLDPNTRFIYGDKERHGREEANKWAHHLRITHMEDTDFDVYDGVLTIDIRLDFVVNGRRHEVKTHLLVVKIDGRWLINEVEIK
The protease stability score of the first is higher: 1.46 for the first, 0.514 for the second.

First: DEDEEKVEHISKEYFRSFVTGDEDKLRKLLDPNARVYFNGQTVIGRELATKIVLELRNRQVEVDHLHIEYQGDKARLHQITTIDGHINGRDEWFEFHIEVHLRKVNGKWVIQRSEFEIR
Second: DEEEETIRRDAKLTLDLIRTGDEEHLKKMLDPHVRLQIVIGDKTIENHGREEVIRRLRHEWKRFKNMRILIEDKRVVGNWVHFFGTILYNGVEHEAVLDLVLIDGVLHSIRINVI
The protease stability score of the first is lower: 0.252 for the first, 1.6 for the second.

Going from “DDLEKWYEDIARLYHHNLLTGDEDVIHELLDPNVRLVVGDKHFHGRESVIEFLKRELTEIRIEDIKIKEVHWVGDFSINRGTLHIRINGVLFDVRSEVIFDVINGKIRRVTRIII” to “DEEHRKLKKFVRESMEDHRTGDEDRRNELLDPNVRIEIGDKTFHGREDDKKWLEEFGVDHVEIRIRHIDIIGNKAIIDSELRIFVNGRILEFDTIIYAEKYDGRWVHHSVQVR”, the protease stability score falls from 1.6 to 0.077.

Compared with “DELERLVEDLVRILLEILLTGDWKILMRLMDPDARFIYGDKQRVGMEEVIKELHRLKEEIRINSIEIKRVEIQGDWVHVDGRSDVEVGDKRRSTEVRYHFHVFNGRMRRINIEVE”, “DEEEELARKYTEIYRHFMHTGDEDLNREFADPNTQILQGNKRFHGWKWYLEIVRRLGADHMEIHRVDVQGDKVHNDGRMIVNGKTLHFELIITKIDGRWVLREVRLG” is higher in protease stability score: 1.12 for the first, 1.4 for the second.
